Ends that are not written are not given here.
T1: rat CRF binding protein C-terminally fused with a His6 sequence (rat) (UniProt P24388)
T1 sequence: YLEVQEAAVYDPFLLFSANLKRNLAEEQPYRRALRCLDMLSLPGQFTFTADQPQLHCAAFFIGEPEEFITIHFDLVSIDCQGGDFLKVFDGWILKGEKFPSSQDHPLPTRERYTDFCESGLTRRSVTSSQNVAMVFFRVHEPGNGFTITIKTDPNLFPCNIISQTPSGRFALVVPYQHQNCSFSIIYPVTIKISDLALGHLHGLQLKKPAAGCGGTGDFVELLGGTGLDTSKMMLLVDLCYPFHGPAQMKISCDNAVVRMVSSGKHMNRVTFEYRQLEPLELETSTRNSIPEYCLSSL


How the values were obtained:
[1] = target: mouse CRF receptor, type 2β (mouse) (UniProt Q60748); test: SPA competition with 0.05 nM [125I-Tyr0]Svg, HEK-293 membranes; 95% CI (0.72-1.1)
[2] = target: T1, rat CRF binding protein C-terminally fused with a His6 sequence (rat); test: SPA competition with 0.1 nM [125I-Tyr0]h/rCRF, His-tagged rCRFBP; 95% CI (45-70)
[3] = target: T1, rat CRF binding protein C-terminally fused with a His6 sequence (rat); test: SPA competition with 0.1 nM [125I-Tyr0]h/rCRF, His-tagged rCRFBP; 95% CI (0.66-1.0)
[4] = target: mouse CRF receptor, type 2β (mouse) (UniProt Q60748); test: SPA competition with 0.05 nM [125I-Tyr0]Svg, HEK-293 membranes; 95% CI (0.56-1.1)

Row | Binder | IC50 [1] | IC50 [2] | IC50 [3] | IC50 [4]
1 | QGPPISIDLSLELLRKMIEIEKQEKEKQQAANNRLLLDTI (ligand, ends and bridges not checked) [sauvagine] | 0.92 nM | 57 nM | – | –
2 | QGPPISIDLSLELLRKMIEIARAEKEKQQAANNRLLLDTI (ends and bridges not checked) [[Ala^21,23Arg^22]Svg] | – | – | 0.84 nM | 0.82 nM
